From patent US20240018513A1, “SYNTHETIC INTRONS FOR TARGETED GENE EXPRESSION” (FRED HUTCHINSON CANCER CENTER, priority 2020, published 2024)
Positions count from the first letter of the chain named.

B1: intron_2258: 100 nt MTERFD3 intron 1-derived synthetic intron, deletion 15to65; SEQ ID NO 57/65 (nucleic acid)
DNA 1: GTGAGTCGCCCCCTTAGGCCTTGTAGGCCATGGTAAGGCATTTCTATGTTTTATTTTACTTTGTCTTTATCCTAAAATGCCATTGGCAAGTTTATTGCAG
DNA 2: B1 DNA 1
modifications: expressed or natural sequence
B2: intron_control: 250 nt parent synthetic intron from MTERFD3 intron 1 (first 100 and last 150 nt); SEQ ID NO 63/71 (nucleic acid)
DNA 1: GTGAGTCGCCCCCTTCCTCTGCTCCTGGGCGTGTTCCTCACCAGCGGCGCCGCAGCGGTCAGGGCCCGCAAAACCCCACGCCTCGCCAGACGCTCAGCTCCAGGAAGCAAATGCAGCTGGTGCAGGAGAGGGAAATGGGAATTAGGGTGGTGGCAGAGCCCAAAGAGGCCTTGTAGGCCATGGTAAGGCATTTCTATGTTTTATTTTACTTTGTCTTTATCCTAAAATGCCATTGGCAAGTTTATTGCAG
DNA 2: B2 DNA 1
B3: intron_9600: 158 nt synthetic intron, insertion 89_TACTAACA consensus branchpoint; SEQ ID NO 62/70 (nucleic acid)
DNA 1: GTGAGTCGCCCCCTTCCTCTGCTCCGAGAGGGAAATGGGAATTAGGGTGGTGGCAGAGCCCAAAGAGGCCTTGTAGGCCATGGTAAGGCTACTAACAATTTCTATGTTTTATTTTACTTTGTCTTTATCCTAAAATGCCATTGGCAAGTTTATTGCAG
DNA 2: B3 DNA 1
B4: intron_13121: 150 nt control synthetic intron, GT_to_CC + AG_to_CC splice site mutations; SEQ ID NO 56/64 (nucleic acid)
DNA 1: CCGAGTCGCCCCCTTCCTCTGCTCCGAGAGGGAAATGGGAATTAGGGTGGTGGCAGAGCCCAAAGAGGCCTTGTAGGCCATGGTAAGGCATTTCTATGTTTTATTTTACTTTGTCTTTATCCTAAAATGCCATTGGCAAGTTTATTGCCC
DNA 2: B4 DNA 1
B5: intron_4095: 150 nt synthetic intron, 138_AtoC-139_GtoC (cryptic 3′ss at −11 removed); SEQ ID NO 60/68 (nucleic acid)
DNA 1: B4 DNA 1 with C1G, C2T, A139C, G140C, C149A, C150G
DNA 2: B4 DNA 1 with C1G, C2T, A139C, G140C, C149A, C150G
B6: intron_8499: 150 nt synthetic intron, 89/95/102/107 AtoG branchpoint ablation; SEQ ID NO 61/69 (nucleic acid)
DNA 1: B4 DNA 1 with C1G, C2T, A90G, A96G, A103G, A108G, C149A, C150G
DNA 2: B4 DNA 1 with C1G, C2T, A90G, A96G, A103G, A108G, C149A, C150G
B7: intron_2790: 150 nt synthetic intron, mutation 148_AtoG (canonical 3′ss); SEQ ID NO 59/67 (nucleic acid)
DNA 1: B4 DNA 1 with C1G, C2T, C149G, C150G
DNA 2: B4 DNA 1 with C1G, C2T, C149G, C150G

These molecules were tested on WT K562 cells (assay: Mini-screen: pooled synthetic intron mini-library in HSV-TK, GCV treatment, full-length intron sequencing from genomic DNA). Conditions: genotype WT (SF3B1+/+) K562; GCV 100 ug/mL; day 6; vector hPGK-PuroR-P2A-HSV-TK.
Type: cell-based
Text: (§1) Therefore, a massively parallel splicing assay was developed to map and functionally interrogate key sequence features within the synthetic intron. First, a pilot mini-library of eight synthetic introns was synthesized, seven of which were much shorter (lengths of 100-158 nt) than the parent synthetic intron (synMTERFD3i1-250), and each with one or more perturbations to potentially critical features (FIG. 2E). This mini-library was cloned into HSV-TK, introduced into WT or SF3B1-mutant K562 cells with a lentiviral vector at a low multiplicity of infection, and treated with GCV. Relative depletion of each construct was measured by high-throughput sequencing of the entire introns from genomic DNA after six days of treatment (TABLE 1).
(§2) Each synthetic intron used in the mini-library was ordered individually as a gBlock (Integrated DNA Technologies), consisting of the desired intron flanked by homology arms for cloning (5′ arm: […] (SEQ ID NO:158); 3′ arm: […] (SEQ ID NO:159; TABLE 3). The gBlocks were then mixed in equal proportions before being cloned into hPGK-PuroR-P2A-HSV-TK using a previously published strategy for pooled cloning (Thomas, J. D. et al. RNA isoform screens uncover the essentiality and tumor-suppressor activity of ultraconserved poison exons. Nature genetics 52, 84-94 (2020), incorporated herein by reference in its entirety). This intron mix was then amplified using NEBNext High Fidelity Ready Mix (New England Biolabs) and purified using 1.8×AMPure XP SPRI beads (Beckman Coulter). The backbone for the library was amplified using Q5 polymerase (New England Biolabs). The library was transformed and amplified using Endura ElectroCompetent Cells (Lucigen, 60242-2) and large LB plates. The library was maxiprepped using a Macherey-Nagel MaxiPrep kit (Thermo Fisher Scientific, Cat 740414.10).
(§3) WT or SF3B1-mutant K562 cells were infected with lentivirus encoding the mini-library at an MOI of 0.3 and untreated or treated with GCV (100 ug/mL) for 6 days. Genomic DNA was collected at day 6 and the resulting Illumina libraries were sequenced with 2×150 bp reads (Illumina MiSeq). Depletion/enrichment of each construct was estimated as follows. For each sample, reads were normalized to the total reads mapped. The relative fraction of reads mapping to each intron was then estimated by dividing the numbers of normalized reads mapped to an intron by the total reads mapped in the sample. The standard deviation was calculated using the sample proportion P for each intron (σ=sqrt [P(1−P)/n]). A fold-change was calculated for each intron by dividing the proportion of the intron in the treated GCV samples by the fraction of the intron in the untreated samples. Error propagation was used to estimate the standard deviation. The final relative fold-changes were computed by normalizing fold-changes such that the fold-change of synMTERFD3i1-250 in the pilot screen was identical to the experimentally measured fold-change in a single-construct experiment (FIG. 2C, 100 μg/mL of GCV).

Row | Molecule | fold-change (estimated fold-change in intron abundance in gDNA)
1 | B1 | 1.279
2 | B2 | 0.96
3 | B3 | 1.112
4 | B4 | 1.226
5 | B5 | 0.3305
6 | B6 | 1.15
7 | B7 | 1.042

These molecules were tested on SF3B1-mutant K562 cells in the same assay as above. Conditions: SF3B1-mutant vs WT K562; GCV, six days.
Type: cell-based
Text: as §1, §2, §3

Row | Molecule | depletion / mutation responsiveness in mini-screen
8 | B2 | markedly depleted in SF3B1-mutant, but not WT, cells

Same assay, conditions: genotype K700E (SF3B1+/K700E) K562; GCV 100 ug/mL; day 6; vector hPGK-PuroR-P2A-HSV-TK

Row | Molecule | fold-change (estimated fold-change in intron abundance in gDNA)
9 | B1 | 0.4996
10 | B2 | 0.23
11 | B3 | 0.2356
12 | B4 | 0.8961
13 | B5 | 0.2637
14 | B6 | 0.2767
15 | B7 | 0.7611

These molecules were tested on isogenic WT or SF3B1-mutant K562 cells (assay: Single-construct cell viability (CellTiter-Glo, ATP) of cells expressing HSV-TK with synthetic intron, GCV treatment). Conditions: SF3B1-mutant K562 cells; 0-100 μg/mL GCV, 3 days.
Type: cell-based
Text: This split HSV-TK sequence or an intronless HSV-TK was cloned into a lentiviral expression vector. Isogenic WT or SF3B1-mutant K562 cells were infected. Positive integrants were selected and treated with GCV (FIG. 2B).
Stable cell lines were made by transducing K562 or MCF10A cells with lentivirus at multiplicities of infection (MOIs) of 1 (FIGS. 2C, 2G, and 2H), 0.3 (mini-library), and 0.1 (full library). Positive integrants were selected by treating with puromycin (hPGK-PuroR-P2A-HSV-TK) or flow sorting for mCherry (hPGK-HSV-TK-P2A-mCherry).
Cell viability was measured for single-construct experiments in cell culture by the CellTiter-Glo Luminescent Cell Viability Assay (Promega). For FIG. 2C, K562 cells expressing HSV-TK with the indicated synthetic introns were seeded at a density of 10,000 cells/100 μL/well in a 96-well plate in biological triplicate, and then treated with 0-100 μg/mL GCV or untreated (negative control). Viability measured after 3 days of treatment. For FIG. 2G, K562 cells expressing HSV-TK with the indicated synthetic introns were seeded at a density of 5,000 cells/100 μL/well in 96-well plate in biological triplicate, and then treated with 100 μg/mL GCV or PBS (negative control). Viability was measured after 11 days of treatment.

Row | Molecule | viability upon GCV treatment
16 | B2 | a rapid and dose-dependent loss of viability, indistinguishable to that caused by intronless HSV-TK

Same assay, conditions: WT K562 cells; 0-100 μg/mL GCV, 3 days

Row | Molecule | viability upon GCV treatment
17 | B2 | no significant differences in viability from untransduced cells

What follows are molecules tested on isogenic WT or SF3B1-mutant K562 cells (assay: Fluorescent reporter (mEmerald interrupted by synthetic intron, mCardinal control), flow cytometry). Conditions: not given.
Type: cell-based
Text: These six endogenous introns served as starting points for the development of synthetic introns that functioned as compact and modular molecular switches. […] These choices were guided by the increased complexity of the 3′ss versus 5′ss, SF3B1's functional role in 3′ss recognition, and the importance of exon length in splicing. Each split mEmerald sequence was cloned into a vector with constitutive expression of the non-overlapping fluorophore mCardinal (FIG. 1E). The resulting vectors permitted quantitative assessment of mutation-dependent protein production by measuring the ratio of mEmerald to mCardinal in cells with or without an SF3B1 mutation via flow cytometry.
Each construct was transfected into isogenic WT or SF3B1-mutant K562 cells and mutation-dependent splicing and protein production was measured. […] Mutation-dependent protein production arose from mutation-dependent splicing changes, as designed (FIGS. 6G and 6H). These proof-of-principle studies confirmed the feasibility of using synthetic introns for mutation-dependent gene expression. […]

Row | Molecule | mutation-dependent specificity [fold]
18 | B2 | 2
